Test results as given in patent US9896488B2.

Target: Fc-tagged extracellular domain of RPTPσ (wild type) (mouse) (UniProt B0V2N1)
Test: ELISA: RPTPσ-Fc on protein G plates, biotinylated aggrecan (5 ug/ml) preincubated with protamine (0-5 ug/ml). The reference is binding without protamine.

- fold increase of binding in the presence of protamine: 2 fold
Substance: Biotinylated aggrecan (from UniProt P13608)
